Test results from publication PMC4591472 (Microbiology (Reading, England), 2015).

B1: KinC, bacterial two-hybrid fusion (enzyme, B. subtilis NCIB3610, UniProt P39764 1-428, looked up)
chain: MRKYQARIISIILAMIFIMFWDYLFYFIGKNPINWPVDIVYTAVTLVSVWMLAYYIDEKQQLVKKMKDNEWKYKQLSEEKNRIMDNLQEIVFQTNAKGEITYLNQAWASITGFSISECMGTMYNDYFIKEKHVADHINTQIQNKASSGMFTAKYVTKNGTIFWGEVHYKLYYDRDDQFTGSLGTMSDITERKEAEDELIEINERLARESQKLSITSELAAGIAHEVRNPLTSVSGFLQIMKTQYPDRKDYFDIIFSEIKRIDLVLSELLLLAKPQAITFKTHQLNEILKQVTTLLDTNAILSNIVIEKNFKETDGCMINGDENQLKQVFINIIKNGIEAMPKGGVVTISTAKTASHAVISVKDEGNGMPQEKLKQIGKPFYSTKEKGTGLGLPICLRILKEHDGELKIESEAGKGSVFQVVLPLKSDS
B2: KinB, bacterial two-hybrid fusion (enzyme, B. subtilis NCIB3610, UniProt Q08430 1-428, looked up)
chain: MEILKDYLLHICFILFPILLYQVFWLGKPAILVPKINSGLVTLFACGASVLCIIFPIHEMDYIQYGLQMIPVIICLFYISTASGLTVAASVLCFELLFYEPSAMFVFTLLPFLIIIPILFQKKWPFMSKAKKLLLSLLISCVEIFLFFASSWILSALNILNFQKSGIFVYEAAVSGLFRSSVLLLSIYIIESIAENIALRSQLIHSEKMTIVSELAASVAHEVRNPLTVVRGFVQLLFNDETLQNKSSADYKKLVLSELDRAQGIITNYLDMAKQQLYEKEVFDLSALIKETSSLMVSYANYKSVTVEAETEPDLLIYGDATKLKQAVINLMKNSIEAVPHGKGMIHISAKRNGHTIMINITDNGVGMTDHQMQKLGEPYYSLKTNGTGLGLTVTFSIIEHHHGTISFNSSFQKGTTVTIKLPADLPH
B3: KinD, bacterial two-hybrid fusion (enzyme, B. subtilis NCIB3610, UniProt O31671 1-506, looked up)
chain: MLERCKLKILKGACGRVKLYIILVVIPAIVISFFVYEKEKDTIAAEHKQEASVLLNLHRNKINYLIGETMARMTSLSIAIDRPVDIKKMQSILEKTFDSEPRFSGLYFLNAKGDVTASTTELKTKVNLADRSFFIKAKETKKTVISDSYSSRITGQPIFTICVPVLDSKRNVTDYLVAAIQIDYLKNLINLLSPDVYIEVVNQDGKMIFASGQASHAEDQKPVSGYLDDISWNMKVYPNPVTIEELSKSLVLPLSCIIVLLNILFILVLYYLLKRQTQLERSENEAQKLELIGTLAASTAHEIRNPLTGISGFIQLLQKKYKGEEDQLYFSIIEQEIKRINQIVSEFLVLGKPTAEKWELNSLQDIIGEIMPIIYSEGNLYNVEVELQYLTEQPLLVKCTKDHIKQVILNVAKNGLESMPEGGKLTISLGALDKKAIIKVVDNGEGISQEMLDHIFLPFVTSKEKGTGLGLVVCKRIVLMYGGSIHIESEVRRGTEVTITLPVSAS
B4: KinC-CFP (enzyme, B. subtilis, UniProt P39764 1-428, looked up)
chain: B1 chain
B5: ResE, bacterial two-hybrid fusion (enzyme, B. subtilis NCIB3610, UniProt P35164 1-589, looked up)
chain: MKFWKSVVGKLWFTILSLVLIVLFILTVLLLEFIENYHVEEAENDLTQLANKVAVILENHEDQALARSITWELADNLTSIAIIQDEKNHWYSPNDKNRLSSITVEQIQHDKDLNKALKDHKKVSKRTGLSDTDTDNERLIVGVPYEKDGKKGMVFLSQSLLAVKDTTKHTTRYIFLAAGIAIVLTTFFAFFLSSRVTYPLRKMREGAQDLAKGKFDTKIPILTQDEIGELATAFNQMGRQLNFHINALNQEKEQLSNILSSMADGVITINIDGTILVTNPPAERFLQAWYYEQNMNIKEGDNLPPEAKELFQNAVSTEKEQMIEMTLQGRSWVLLMSPLYAESHVRGAVAVLRDMTEERRLDKLREDFIANVSHELRTPISMLQGYSEAIVDDIASSEEDRKEIAQIIYDESLRMGRLVNDLLDLARMESGHTGLHYEKINVNEFLEKIIRKFSGVAKEKNIALDHDISLTEEEFMFDEDKMEQVFTNLIDNALRHTSAGGSVSISVHSVKDGLKIDIKDSGSGIPEEDLPFIFERFYKADKARTRGRAGTGLGLAIVKNIVEAHNGSITVHSRIDKGTTFSFYIPTKR

What was measured:
[1] = biological target: T1, FloT tagged to the T25 catalytic domain of adenylate cyclase (B. subtilis NCIB3610, UniProt O32076 1-509); assay: two-hybrid
T1 sequence (looked up): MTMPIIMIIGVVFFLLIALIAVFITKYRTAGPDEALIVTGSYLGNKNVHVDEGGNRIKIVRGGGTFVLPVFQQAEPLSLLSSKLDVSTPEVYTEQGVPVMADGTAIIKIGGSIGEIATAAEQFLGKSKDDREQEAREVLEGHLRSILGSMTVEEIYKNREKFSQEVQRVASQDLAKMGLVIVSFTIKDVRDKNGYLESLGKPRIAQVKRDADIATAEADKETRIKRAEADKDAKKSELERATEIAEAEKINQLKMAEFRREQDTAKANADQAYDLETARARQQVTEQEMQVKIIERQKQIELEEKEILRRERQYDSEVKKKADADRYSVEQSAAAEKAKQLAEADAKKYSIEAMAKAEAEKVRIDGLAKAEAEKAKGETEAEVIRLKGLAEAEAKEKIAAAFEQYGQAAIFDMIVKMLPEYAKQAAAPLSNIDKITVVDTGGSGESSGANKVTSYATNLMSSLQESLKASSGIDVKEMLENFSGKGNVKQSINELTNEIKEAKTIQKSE

two-hybrid = biological target: the molecule itself; assay: two-hybrid
native gel or EMSA = biological target: the molecule itself; assay: native gel or EMSA

Binder	β-galactosidase activity [1] [Miller Units]	β-galactosidase activity (two-hybrid) [Miller Units]	stoichiometry N (native gel or EMSA)
B1	> 3500	~1500	
B2		~5500	
B3	~1100	~1500	
B4			2
B5	~1600		
